Reference: patent US20150080245A1 (CATHOLIC UNIVERSITY INDUSTRY ACADEMIC COOPERATION FOUNDATION, published 2015)

Biological target: T1, cyclic citrullinated peptide (CCP) derived from filaggrin (X stands for citrulline (9th residue of HQCHQESTXGRSRGRCGRSGS); a chemical bond between the two underlined Cs (cyclic))
T1 construct: Synthesized peptide, coated on ELISA plates at 250 ng/well; also called Filaggrin-derived CCP; CCP peptide
T1 peptide: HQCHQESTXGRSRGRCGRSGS
Experiment: ELISA, coated CCP peptide, hybridoma supernatant diluted 1:1000
Description: For hybridoma selection, each of the CCP peptide and the CRP peptide, both previously prepared, was diluted to a final concentration of 250 ng/well in PBS or a carbonate buffer. The dilution was allocated in an amount of 50 μl into 96-well plates and incubated for 2 hrs at room temperature or overnight at 4° C. Each well was washed with 200 μl of PBS. To this end, the plates were overturned to decant the solution out of all the wells, and then struck down against paper towel to completely remove the remaining solution. […] After 30 min of the incubation, the color development was terminated with a stop solution, and color intensity to was immediately measured at 450 nm in a single point photo mode. […]
Repeated screening of the hybridoma cells against CCP and CRP left two clones 11G1 and 12G1 in the final stage (FIGS. 7 and 8). FIGS. 6 to 8 list binding intensities of anti-CCP antibodies when they recognized and bound to the target peptide CCP in each screening stage of the hybridomas, as measured by absorbance at 450 nm. […] With reference made to these marked values, how effectively each hybridoma clone produced an anti-CCP antibody was analyzed, and selection was made of effective clones which were then cultured many times so that the effective clones producing anti-CCP antibodies only predominated over other clones.

binding result: binds
B1: monoclonal antibody 12G1 produced from the 12G1 hybridoma cell line (accession No. KCLRF-BP-00276) (antibody, V domains shown)
VH: EVKLEESGAELVRPGTSVKISCKASGYGFTNYWLGWIKQRPGHGLEWIGDVYPGSGNTYYNEKFKGKATLTADKSSSTVYMQLSSLTSEDSTVYFCAREGGITTAPYPFGYWGQGTLVTVSA
VL: DIVMTQTPSSMYASLGERVTITCKASQDINSYLSWFQQKPGKSPKTLIYRANRLVDGVPSRFSGSGSGQDYSLTISSLEYEDMGIYYCLQYDEFPWTFGGGTKLEIK
notes: Mouse monoclonal antibody from a hybridoma, detected with anti-mouse IgG; Used as hybridoma supernatant or as purified antibody; also called 12G1 antibody
